Experimental data reported in patent US8575113.

Legend:
[1] = target: GST-linker BIR 2 BIR3Ring
[2] = target: GST-XIAP linker BIR 2 [GST: P08515]

Sequence of GST-linker BIR 2 BIR3Ring (chain, as listed by the source): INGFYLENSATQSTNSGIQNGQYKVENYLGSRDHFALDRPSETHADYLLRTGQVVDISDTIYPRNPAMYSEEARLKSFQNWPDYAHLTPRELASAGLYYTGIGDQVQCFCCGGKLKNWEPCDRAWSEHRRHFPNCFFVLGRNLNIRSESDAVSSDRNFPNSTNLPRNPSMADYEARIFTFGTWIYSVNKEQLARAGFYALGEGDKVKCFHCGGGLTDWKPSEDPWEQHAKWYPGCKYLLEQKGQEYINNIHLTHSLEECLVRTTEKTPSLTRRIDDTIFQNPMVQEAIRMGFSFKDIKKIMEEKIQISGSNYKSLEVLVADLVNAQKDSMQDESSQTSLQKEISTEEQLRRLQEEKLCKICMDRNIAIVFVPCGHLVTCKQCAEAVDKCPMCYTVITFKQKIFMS

B1: caspase-3 (protein)
chain: SGISLDNSYKMDYPEMGLCIIINNKNFHKSTGMTSRSGTDVDAANLRETFRNLKYEVRNKNDLTREEIVELMRDVSKEDHSKRSSFVCVLLSHGEEGIIFGTNGPVDLKKITNFFRGDRCRSLTGKPKLFIIQACRGTELDCGIETDSGVDDDMACHKIPVEADFLYAYSTAPGYYSWRNSKDGSWFIQSLCAMLKQYADKLEFMHILTRVNRKVATEFESFSFDATFHAKKQIPCIVSMLTKELYFYH
B1 was tested, and the “Caspase 3 activity (DEVD-AMC hydrolysis, Vo of AMC fluorescence/sec)” value [1] was “caspase-3 was inhibited by linker-BIR2 or linker BIR2-BIR3-RING of XIAP” and the “Caspase 3 activity (DEVD-AMC hydrolysis, Vo of AMC fluorescence/sec)” value [2] was “caspase-3 was inhibited by linker-BIR2 or linker BIR2-BIR3-RING of XIAP”.
